From patent publication US20210032294A1, “MODIFIED PlySs2 LYSINS AND USES THEREOF” (CONTRAFECT CORPORATION, priority 2018, published 2021)
Entries after “also recorded” stand apart in the source; their conditions may differ.

Key:
[1] = system: MRSA isolates; test: MIC in CAMHB-HSD against MRSA isolates; format: cell-based, Staphylococcus aureus; conditions: 51 MRSA isolates
Experimental: In vitro activity of the modified lysin polypeptide pp296 was assessed against a range of 51 MSSA and 51 MRSA isolates in cation-adjusted Mueller Hinton broth supplemented with 25% horse serum and 0.5 mM DTT (CAMHB-HSD) and compared to WT GMP grade PlySs2 (CF-301). CF-301 and pp296 were each diluted into CAMHB-HSD. For each lysin, the dilution series is set up such that, after a two-fold dilution of each well of the plate, the final concentrations contained: 64, 32, 16, 8, 4, 2, 1, 0.5, 0.25, and 0.125 μg/mL. Each lysin was tested in duplicate against each strain. Preparations were incubated overnight. Growth was visualized as a growth button approximately 2 mm in diameter. The highest dilution that yielded ≥80% growth inhibition was called the minimum inhibitory concentration (MIC). The activity of pp296 was very similar, within one 2-fold dilution, to that of CF-301, as shown below in Table 7.

[2] = Toxicity screening in mice; format: in vivo; conditions: 30 mg/kg
Experimental: Selected modified lysin polypeptides from Table 3 were subjected to further testing as described in more detail in subsequent Examples. […] The same 30 mg/kg dose of PlySs2 caused a 100% incidence of adventitial findings, which is an indication of potential toxicity.

[3] = system: 5 MRSA strains and 5 MSSA strains; test: Checkerboard synergy assay with daptomycin or vancomycin; format: cell-based, Staphylococcus aureus; conditions: MRSA (JMI-41293) strain
[4] = system: 1-day old biofilms formed by MRSA isolates; test: Minimum Biofilm Eradication Concentration (MBEC), MRSA biofilms; format: cell-based, Staphylococcus aureus; conditions: 24 hours treatment
Experimental: In some embodiments, the present modified lysin polypeptides are capable of reducing a biofilm. […] Biofilms are then washed and treated with e.g., a 2-fold dilution series of the lysin in TSBg at e.g., 37° C. for 24 hours. After treatment, wells are washed, air-dried at e.g., 37° C. and stained with e.g., 0.05% crystal violet for 10 minutes. After staining, the biofilms are destained in e.g., 33% acetic acid and the OD600 of e.g., extracted crystal violet is determined. The MBEC of each sample is the minimum lysin concentration required to remove >95% of the biofilm biomass assessed by crystal violet quantitation.
The anti-biofilm activity of pp296 was determined against 1-day old biofilms formed by 17 MSSA and 20 MRSA isolates in a 96-well broth microdilution format. The Minimum Biofilm Eradication Concentration (MBEC) values for pp296, compared to wild-type PlySs2 (CF-301), were determined by the following standard methodology. Bacteria were suspended in PBS (0.5 McFarland Units), diluted 1:100 in TSBg (66% tryptic soy broth, 0.2% glucose), added as 0.15 mL aliquots to 96-well polystyrene microplates, and incubated for 24 hours at 37° C. Biofilms were then washed and treated with a 2-fold dilution series of CF-301 or pp296 in TSBg at 37° C. for 24 hours. All samples were examined in triplicate. After treatment, wells were washed, air-dried at 37° C., and stained with 0.05% crystal violet for 10 min The loss of biofilm biomass was assessed visually, and crystal violet was quantitated by solubilization in 33% (vol/vol) acetic acid. The optical density of 600 nm (OD600) was determined using a SpectraMax M3 Multimode microplate reader. The MBEC of each sample was the minimum lysin concentration required to remove >95% of the biofilm biomass assessed by crystal violet quantitation.

[5] = system: bacterial inoculum; test: Thermal stability: in vitro lytic assay after 30 min heating; format: cell-based
Experimental: Thermal stability was assessed by incubating the lysin polypeptides at a fixed concentration of 128 μg/mL in Tris buffer pH 8.0 for 30 minutes at various elevated temperatures (within the range of about 30° C. to 60° C.) prior to assessing activity. The samples were then cooled for 2 minutes on ice and activity was then assessed by an in vitro lytic assay by exposing a bacterial inoculum (OD600 ˜0.5-1.2) in Tris buffer to a 2-fold dilution series of each sample (diluted from 128-0.25 μg/mL across the x-axis of a 96 well microtiter plate). The loss of optical density was followed for 15 minute at room temperature, and the specific activity was determined based on the enzyme concentration enabling a 50% loss of optical density at 15 minutes. The enzyme activities of each variant were compared to the wild-type, CF-301 enzyme (GMT-grade PlySs2 protein) to calculate the % of Wild-Type Activity over a range of temperatures.
The thermal stability of wild-type, CF-301 was arbitrarily set at 100. The results for exemplary modified lysin polypeptides are set forth below in Table 5 at a single temperature of 37° C.:
In another experiment, the thermal stability of modified lysin polypeptides was assessed at different temperatures and compared with that of wild-type, CF-301 (set at 100).

B1: pp296: Modified PlySs2 lysin, SEQ ID NO: 6: L92W, V104S, V128T, Y137S, Y164K, N184D, S198Q (protein)
chain: MTTVNEALNNVRAQVGSGVSVGNGECYALASWYERMISPDATVGLGAGVGWVSGAIGDTISAKNIGSSYNWQANGWTVSTSGPFKAGQIVTWGATPGNPYGHVSIVEAVDGDRLTILEQNYGGKRYPTRNYYSAASSRQQVVHYITPPGTVAQSAPNLAGSRSKRETGTMTVTVDALNVRRAPDTSGEIVAVYKRGEQFDYDTAIIDVNGYAWVSYIGGSGKRNYVATGATKDGKRFGNAWGTFK
MIC50 [1]: 1 µg/mL
MIC90 [1]: 1 µg/mL
MIC Range [1]: 0.25 to 2 µg/mL
Adventitial findings (lesions) [2]: no adventitial findings; also recorded: did not result in adventitial lesions
FIC index [3]: 0.75
MBEC50 [4]: 0.031 µg/mL
MBEC90 [4]: 0.06 µg/mL
MBEC Range [4]: 0.01 to 0.25 µg/mL
% Wild-Type Activity at 37° C. ([5]; 30 minutes at 37° C., 128 μg/mL in Tris buffer pH 8.0, CF-301 set at 100): 205%
% of CF-301 wild-type, 37° C. ([5]; 30 minutes at 37° C., another experiment): 204.6%
% of CF-301 wild-type, 40° C. ([5]; 30 minutes at 40° C.): 243.1%
% of CF-301 wild-type, 42° C. ([5]; 30 minutes at 42° C.): 141.2%
% of CF-301 wild-type, 45° C. ([5]; 30 minutes at 45° C.): 40.1%
% of CF-301 wild-type, 48° C. ([5]; 30 minutes at 48° C.): 0.0%
% of CF-301 wild-type, 50° C. ([5]; 30 minutes at 50° C.): 0.0%
